Assay results as given in US20250066451A1 (SWEDISH ORPHAN BIOVITRUM AB PUBL, published 2025).

T1: Human IL-1R-I-Fc (Creative BioMart cat. no. IL1RI-771H) (human, UniProt P14778 18-332, limits assumed)
T1 construct: Bought protein; also called hIL-1R-I-Fc; hIL-1RI-Fc; not shown: Fc part of the bought fusion
T1 sequence (looked up): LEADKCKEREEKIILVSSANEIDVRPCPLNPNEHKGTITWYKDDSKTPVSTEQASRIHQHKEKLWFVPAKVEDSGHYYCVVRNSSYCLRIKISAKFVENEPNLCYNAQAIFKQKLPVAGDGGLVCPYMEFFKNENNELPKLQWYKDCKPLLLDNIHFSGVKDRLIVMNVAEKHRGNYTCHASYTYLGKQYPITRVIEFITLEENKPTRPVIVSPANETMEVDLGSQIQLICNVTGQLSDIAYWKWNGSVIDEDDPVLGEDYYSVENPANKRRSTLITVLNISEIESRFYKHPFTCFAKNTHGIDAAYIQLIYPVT

B1: Z12917 as Z-ABD fusion (periplasmic extract) (designed binder)
chain: AQHDEALEVDAKYAKEARQAYAEIYLLPNLTRRQYTAFIRKLLDDPSQSSELLSEAKKLNDSQAPKVDYVLAEAKVLANRELDKYGVSDYYKNLINNAKTVEGVKALIDEILAALPYVPG
B2: ABD001 (wild type albumin binding domain), periplasmic extract (other)
chain: LAEAKVLANRELDKYGVSDYYKNLINNAKTVEGVKALIDEILAALP
notes: Negative control; also called ABD negative control

Legend:
[1] = biological target: T1, Human IL-1R-I-Fc (Creative BioMart cat. …); test: ELISA titration; Z-ABD periplasmic extract, hIL-1R-I-Fc 100-0.01 nM
[2] = biological target: T1, Human IL-1R-I-Fc (Creative BioMart cat. …); test: ELISA screening, periplasmic extract
Method: ELISA screening of Z variants: The clones obtained after four cycles of selection were produced individually in 96-well plates and were screened for hIL-1R-I-Fc binding activity in ELISA using 1 nM target protein. In parallel, an ELISA to exclude Fc binding was run.

EC50 [1]	binding result [2]	Binder
0.33 nM		B1
	no binding (tested: 1 nM hIL-1R-I-Fc)	B2
